One experiment has as its system soybean nodulation. As to the kind of experiment: Over-expression of CLE genes in transgenic soybean hairy roots, nodule number (Example 1). It counts as in vivo, Glycine max. Particulars: for nodulation (nodule number) on over-expression: vs vector-only control. As to the method: Soybean (Glycine max) lines used include the wild type Williams and its isogenic supernodulating nark mutant lines, nod4 and nod3-7 and the wild type Bragg and its isogenic hypernodulating nark mutant line, nts1116. Plants were grown in controlled glasshouse conditions (28° C./26° C. day/night, 16 hour day) in autoclaved pots and vermiculite where sterile growing conditions were required. Seeds requiring sterilisation were treated with 70% ethanol, 3% H2O2 for 1 min, followed by several rinses with water. Plants were watered as required with a modified nutrient solution lacking nitrogen (Herridge, 1982). Plants were inoculated with approximately OD600 0.01 Bradyrhizobium japonicum CB1809 or the corresponding NF mutant nodU grown in yeast-mannitol broth (YMB) at 28° for two days. For nitrate treatments, plants were watered with the indicated solutions of KNO3 every two days. For grafting experiments, reciprocal grafting was carried out 8 d after sowing and the graft unions were allowed to recover for 6 d before B. japonicum inoculation. Nodulation was scored three weeks after inoculation.
The full length CDS of CLE30, CLE60 and CLE80 was directionally cloned into the pKANNIBAL vector for expression of RNAi constructs (Wesley et al., 2001). Pfu polymerase (Stratagene, La Jolla, Calif.) was used to amplify PCR products incorporating restriction nuclease sites from cDNA samples shown to express the target gene. XhoI/EcoRI (for) and KpnI (rev) restriction sites were included in the primer sequences depending on internal restriction sites of each gene (full primer sequences are included in Table 2). Likely clones were confirmed by direct DNA sequencing and capillary separation. Constructs were sub-cloned into p15SRK2 or pM1KCK1 integration vectors (A. Kereszt, unpublished) as a NotI fragment before tri-parental mating to introduce the constructs into Agrobacterium rhizogenes K599. For transgenic root verification in the CLE60 over-expression experiments the DsRed reporter was subcloned into pM1KCK1 from pHairyRed, which is a modified version of pCAMBIA (M-H Lin, P M Gresshoff, B J Ferguson, unpublished). Tri-parental mating was used to introduce DsRed into A. rhizogenes K599 carrying the CLE60 construct. A. rhizogenes were subsequently used for the induction of transgenic soybean hairy roots according to Kereszt et al (2007).
To determine if the soybean CLE peptides regulate nodulation in a NARK-dependent manner, a reverse-genetics approach using a hairy-root transformation system was used. Over-expression of a systemic Q signal would be expected to inhibit nodulation, even in non-transformed roots. To test this, the complete CDS of CLE30, CLE60 or CLE80 was cloned into the pKANNIBAL vector for the expression of efficient RNAi constructs (Wesley et al., 2001). However, to generate over-expressing constructs, the antisense construct was omitted and the Pdk intron of pKANNIBAL was left intact. Previous studies have shown the inclusion of an intron can lead to higher and more consistent expression levels in transgenic plants (Norris et al., 1993).
Tri-parental mating was used to integrate the constructs into Agrobacterium rhizogenes K599 which induces the formation of transgenic hairy roots in soybean (Kereszt et al., 2007).

The test system of the next experiment is G. max nodulation. As to the kind of experiment: Overexpression of GmRIC1 in hairy roots of G. max, nodules counted (Example 2). In kind it is in vivo, Glycine max. To be noted: vs empty vector; for nodulation on overexpression: G. max WT (Williams). Here is the method: (§1) Transformation was done using the hairy root method. Agrobacterium rhizogenes containing a vector with the RIC1 gene (CLE30) and 35s promoter was injected into the stems of young plants. Once transgenic ‘hairy roots’ began growing from the stems the primary roots were removed and the plants with the transgenic roots were replanted and inoculated with the appropriate rhizobia strain.
(§2) All plants were grown in and in 30 well seed trays of grade 3 vermiculite. G. soja seeds were scarified and soaked in MQ H2O before planting. All plants were grown in growth cabinets under 16 h day and 8 h night conditions. P. vulgaris and G. max were grown at 28° C. G. soja were grown at 24° C. All plants were fertilised with a no nitrogen fertiliser and B&D solution (Broughton & Dilworth 1971).
(§3) A. rhizogenes K599 with either p15SRK2::GmRIC1 ox or p15SRK2 were grown on LB media (10 g/L Tryptone, 5 g/L Yeast extract, 10 g/L NaCl) for 2 days at 28° C. The bacteria were harvested by scraping it from the agar plate. The harvested bacteria were suspended in 3 mL MQ H2O, ensuring no lumps remained.
(§4) When all plants had unfolded cotyledons they were injected at the hypocotyl as close to the junction of the cotyledons as possible with the A. rhizogenes solutions (Kereszt et al, 2007; Estrada-Navarrete, 2006). Half of each of the WT and mutant lines received A. rhizogenes p15SRK2+GmRIC1 OX and the other half of the plants received A. rhizogenes p15SRK2; Totalling 4 treatment groups.
(§5) The infection technique was the same for all species using A. rhizogenes K599. To increase the likelihood of the K599 producing hairy roots, the A. rhizogenes was inoculated with 1 mL 200 μM acetosyringone one hour prior to harvesting the bacteria. After infection all seed trays were misted with H2O, covered and sealed to ensure high humidity.
Once root tips were visible at the point of infection, the primary roots of the plants were removed and the hairy roots were re-planted. Plants were left in the growth cabinets for one week to form an adequate root system. […] After 2-3 weeks plants were uprooted and the nodules counted.

In the next experiment the test system is G. soja nodulation. Kind of experiment: Overexpression of GmRIC1 in hairy roots of G. soja, nodules counted. It counts as in vivo, Glycine soja. Particulars: WT G. soja, vs vector only. Here is the method:
as §1, §2
A. rhizogenes K599 with either p15SRK2::GmRIC1 ox or p15SRK2 were grown on LB media (10 g/L Tryptone, 5 g/L Yeast extract, 10 g/L NaCl) for 2 days at 28° C. The bacteria were harvested by scraping it from the agar plate. The harvested bacteria were suspended in 3 mL MQ H2O, ensuring no lumps remained. […]
Once root tips were visible at the point of infection, the primary roots of the plants were removed and the hairy roots were re-planted. […] After 2-3 weeks plants were uprooted and the nodules counted.

The test system of the next experiment is P. vulgaris nodulation. Kind of experiment: Overexpression of GmRIC1 in hairy roots of P. vulgaris, nodules counted. In kind it is in vivo, Phaseolus vulgaris. To be noted: vs vector only. Here is the method:
as §1, §2, §3, §4, §5
Once root tips were visible at the point of infection, the primary roots of the plants were removed and the hairy roots were re-planted. Plants were left in the growth cabinets for one week to form an adequate root system. The plants were subsequently transferred to the glasshouse and re-potted into larger pots. After re-potting plants were also inoculated with the appropriate strain of rhizobia for that particular species. Plants were watered and fertilised with B&D solution (Broughton & Dilworth 1971). After 2-3 weeks plants were uprooted and the nodules counted.

Here are results for one molecule from US20150183839A1, “SOYBEAN NODULATION REGULATORY PEPTIDES AND METHODS OF USE” (priority 2010, published 2015).

Entries after “also recorded” stand apart in the source; their conditions may differ.

B1: CLE30: Glycine max CLAVATA3/ESR-related (CLE) protein, SEQ ID NO:5; rhizobia induced CLE, over-expressed in transgenic hairy roots (protein)
chain: MANATMATRVSILIALIILSTFFMTLQASNLHGHPFIRENNIADSHHFLHKYLDDLSKHIHVQDADDAPHKDGNTHRLAPEGPDPHHNFATPPRN
modifications: Glycine max
notes: rhizobia induced CLE, over-expressed in transgenic hairy roots
Consider B1, for which, in the experiment on soybean nodulation (Glycine max), the NARK/SUNN/HAR1 dependent inhibition entry was “yes”. For the same molecule, the Systemic activity result with soybean nodulation (Glycine max) was “yes”. The “nodulation (nodule number) on over-expression” value was “no reduction in the nodule numbers; also recorded: complete lack of nodule inhibition; also recorded: nodule numbers were not reduced” with soybean nodulation (nod4 supernodulation nark mutant plants) and “completely abolishes soybean nodulation; also recorded: completely eliminated nodulation; also recorded: eliminated nodulation completely; also recorded: nodules were eliminated” with soybean nodulation (wild-type (Williams) soybean, transgenic hairy roots). The nodulation on overexpression result in the experiment on G. max nodulation is “inhibits nodulation”; in the experiment on G. max nodulation (listed as GmRIC1), “completely inhibits nodulation”; in the experiment with G. soja nodulation it was “inhibits nodulation”; with G. soja nodulation (listed as GmRIC1), “completely inhibited nodulation; also recorded: complete inhibition of nodulation”; in the experiment with P. vulgaris nodulation (P. vulgaris R32 supernodulation (AON) mutant), “no effect”; in the experiment with P. vulgaris nodulation (P. vulgaris R32 supernodulation (AON) mutant, listed as GmRIC1), “no significant effect”. Further, the nodulation on overexpression result in the experiment on P. vulgaris nodulation (P. vulgaris WT cv. OAC RICO) is recorded as “inhibits nodulation”; in the experiment on P. vulgaris nodulation (P. vulgaris WT cv. OAC RICO, listed as GmRIC1), “inhibition of nodulation”. Besides, the “nodule numbers on overexpression” value in the experiment with G. max nodulation (G. max nod4 lacking functional NARK) is listed as “nodule numbers were unchanged”.
